Measurements published in patent US9738726B2, “HER2-specific monoclonal antibodies and conjugates thereof” (The United States of America, as represented by the …, priority 2013, dated 2017).
“Also recorded” adds a separate entry of the source. Where a SMILES comes first, the peptide text is derived from it. [ ]: non-standard residue; d: D form. The star is where a group is joined. ξ: configuration not given here. Dolaproine = CO[C@@H]([C@@H]1CCCN1)[C@@H](C)C(=O)O; Dil = CC[C@H](C)[C@H](NC)[C@@H](CC(=O)O)OC; NMe2Val = CC(C)[C@@H](C(=O)*)N(C)C; ξV = CC(C)C(N)C(=O)O; X1 = NOCCOCCOCCN*

Legend:
[1] = tested on: MCF-7 cells (do not express Her2); experiment: In vitro cytotoxicity assay, MCF-7 cells; type: cell-based; conditions: 72 hours, FIG. 7B
Description: (§1) In Vitro Cytotoxicity Assay
(§2) SKBR3, MCF-7 and JIMT-1 cells were cultured and assayed in DMEM (Life Technologies) with 10% (vol/vol) FBS (Gibco), 100 IU/mL penicillin, and 100 µg/mL streptomycin (Life Technologies). For the cytotoxicity assays, the cancer cell lines were plated in 96-well plates at ˜1,000 cells in 70 μL per well in culture medium and incubated overnight at 37° C. and 5% CO2. Drugs (m860 IgG1, m860 ADC and free drug nAF) were filtered (0.22 μm; Millipore) and 30 μl of serially diluted drugs in culture medium were added into the wells in duplicate and incubated at 37° C. for 72 hours. Colorimetric reagent (Promega) was then added to each well. After a 3-hour incubation at 37° C., the absorbance at 490 nm was measured, and IC50 was determined by GraphPad Prism.

FcγRI (CD64) = FcγRI (CD64) (Homo sapiens, UniProt P12314); experiment: Surface plasmon resonance (Biacore) binding to FcγRI (CD64); conditions: SPR, FcγRI immobilized on CM5 chip, 25° C., 1:1 model
Description: (§3) Comparison of the Binding Affinities of m860 and m860 ADC to FcγRIII (CD16) and FcγRI (CD64) Measured by Surface Plasmon Resonance
(§4) Interactions between the antibodies and CD16 and CD64 were analyzed by surface plasmon resonance technology using a Biacore™ X100 instrument (GE healthcare). CD16 or CD64 was covalently immobilized onto a sensor chip (CM5) using carbodiimide coupling chemistry. A control reference surface was prepared for nonspecific binding and refractive index changes. For analysis of the kinetics of interactions, varying concentrations of antibodies were injected at flow rate of 30 μL/min using running buffer containing 10 mmol/L HEPES, 150 mmol/L NaCl, 3 mmol/L EDTA, and 0.05% Surfactant P-20 (pH=7.4). The association and dissociation phase data were fitted simultaneously to a 1:1 model by using BIAevaluation 3.2. All the experiments were done at 25° C.

[2] = target: T1, Her2-ECD-Fc fusion protein (Homo sapiens, UniProt P04626); experiment: Phage ELISA screening of clones panned against Her2-ECD-Fc; type: binding; conditions: five unique clones after third round of biopanning
T1 construct: three rounds of panning against a recombinant Her2 protein ectodomain; purchased R&D systems
Description: A naïve human Fab phage display library (a total of about […] members), constructed from peripheral blood B cells of 10 healthy donors, was used for selection of Fabs against Her2-ECD-Fc fusion protein (R&D systems) conjugated to magnetic beads (DYNABEADS™ M-270 epoxy, Invitrogen). […] After each round of incubation, the beads were washed 5 times for the first round and 15 times for the later rounds with phosphate-buffered saline containing 0.05% Tween 20 (PBST) to remove nonspecifically bound phage. The bead-bound phage were mixed with TG1 cells for 1 hour at 37° C., and the phage was amplified from the infected cells and used in the next round of biopanning. After the third round of biopanning, 190 clones were randomly picked and monoclonal phage was prepared and used for phage ELISA screening to identify the positive binders. […] The nucleotide and amino acid sequences of the m860 VH and VL domains are set forth herein as SEQ ID NOs: 1-4.

[3] = tested on: SKBR3 cells (overexpress Her2); experiment: In vitro cytotoxicity assay, SKBR3 cells; type: cell-based; conditions: 72 hours, FIG. 7A, listed as WT m860 IgG1
Description: as §1, §2

Her2 on SKBR3 cells = target: T2, Her2 on SKBR3 cells (Homo sapiens, UniProt P04626); experiment: Flow cytometry binding to Her2 on SKBR3 cells; conditions: FIGS. 6A-6B
T2 construct: SKBR3 breast cancer cells, which overexpress Her2, were detached in cell dissociation buffer; endogenous in cells; host or cells: SKBR3 breast cancer cells
Description: SKBR3 breast cancer cells, which overexpress Her2, were detached in cell dissociation buffer and rinsed in PBS. […] Unbound antibodies were washed away with PBSA. The secondary antibody, goat anti-human IgG conjugated with PE (Sigma), was diluted at 1:100 and incubated with cells on ice for 30 minutes. Cells were washed and resuspended in PBSA buffer for flow cytometry analysis on FACSCalibur (Becton Dickinson).

[4] = target: T3, cell surface-associated Her2 (Homo sapiens, UniProt P04626); experiment: Binding to cell surface-associated Her2; conditions: compared with trastuzumab (Herceptin)
T3 construct: endogenous in cells

Her2 = Her2 (Homo sapiens, UniProt P04626); experiment: Competition with Herceptin / epitope comparison; type: binding
[5] = tested on: JIMT-1 cells (moderate Her2 expression, trastuzumab-resistant patient); experiment: In vitro cytotoxicity assay, JIMT-1 cells; type: cell-based; conditions: 72 hours, FIG. 7C
Description: as §1, §2

FcγRIII (CD16) = experiment: Surface plasmon resonance (Biacore) binding to FcγRIII (CD16); conditions: SPR, FcγRIII immobilized on CM5 chip, 25° C., 1:1 model
Description: as §3, §4

Sequence of FcγRI (CD64) (P12314 16-374, species assumed): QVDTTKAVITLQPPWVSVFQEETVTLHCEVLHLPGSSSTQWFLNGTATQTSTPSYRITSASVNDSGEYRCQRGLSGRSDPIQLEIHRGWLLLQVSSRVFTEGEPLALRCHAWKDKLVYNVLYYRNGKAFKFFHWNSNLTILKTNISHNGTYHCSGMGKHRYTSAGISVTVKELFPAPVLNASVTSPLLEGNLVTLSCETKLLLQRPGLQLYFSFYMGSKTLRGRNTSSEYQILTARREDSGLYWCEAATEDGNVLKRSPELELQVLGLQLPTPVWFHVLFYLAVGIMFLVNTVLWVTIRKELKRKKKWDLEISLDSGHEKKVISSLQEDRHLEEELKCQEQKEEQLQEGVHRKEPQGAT

| Molecule | cytotoxicity [1] | Kd (FcγRI (CD64)) | ka (FcγRI (CD64)) | kd (FcγRI (CD64)) | binding activity in phage ELISA screening [2] | cytotoxicity [3] | binding activity to Her2 on SKBR3 cells before and after nAF conjugation (Her2 on SKBR3 cells) | affinity for cell surface-associated Her2 [4] | competition with Herceptin / epitope relative to trastuzumab (Her2) | cytotoxicity [5] | Kd (FcγRIII (CD16)) | ka (FcγRIII (CD16)) | kd (FcγRIII (CD16)) |
| --- | --- | --- | --- | --- | --- | --- | --- | --- | --- | --- | --- | --- | --- |
| CC[C@H](C)[C@@H]([C@@H](CC(=O)N1CCC[C@H]1[C@H](OC)[C@@H](C)C(=O)N[C@@H](Cc1ccccc1)C(=O)NCCOCCOCCON)OC)N(C)C(=O)C(NC(=O)[C@H](C(C)C)N(C)C)C(C)C (stereo partly shown) [nAF, Auristatin F with a non-cleavable linker attached at the C-terminus] (NMe2Val-[ξV][Dil][Dolaproine]F-X1) | significant cytotoxicity |  |  |  |  |  |  |  |  |  |  |  |  |
| M860 IgG1: Her2-specific human monoclonal antibody from naïve phage display Fab library, VH SEQ ID NO: 2, VL SEQ ID NO: 4, converted to full size human IgG1 (antibody, V domains shown, IgG1 constant regions without entry) VH: EVQLVQSGAEVKKPGESLKISCKGSGYSFTSYWIGWVRQMPGKGLEWMGIIYPGDCDRSDTRYSPSFQGQVTISADKSISTAYLQWSSLKASDTAMYYCARQYSGYDRYYFDYWGQGTLVTVSS VL: QTVVTQEPSFSVSPGGTVTLTCGLNSGSVSTRHYPSWYQQTPGQAPRTLIYSTDICDRRSSGAPSHISGSILGNKAALTITGAQADDASDYYCALYLGNGIAVFGSGTKVTVLG |  | 22.5 nM | 44790 M⁻¹ s⁻¹ | 0.001007 s⁻¹ | highest binding activity | did not exhibit any cytotoxicity; also recorded: did not show any cytotoxicity | not impacted by nAF conjugation | comparable to that of trastuzumab | binds to a different epitope | little effect | 1500 nM | 11080 M⁻¹ s⁻¹ | 0.01608 s⁻¹ |
